Patent publication US20220204643A1 (published 2022)
Each block holds one binder with its values, some of them ahead of it.

How the values were obtained:
Assay in all cases: protein array
[1] = target: T1, NCCRP1, F-box associated domain containing (human, UniProt Q6ZVX7 1-275)
T1 construct: on protein array
T1 sequence: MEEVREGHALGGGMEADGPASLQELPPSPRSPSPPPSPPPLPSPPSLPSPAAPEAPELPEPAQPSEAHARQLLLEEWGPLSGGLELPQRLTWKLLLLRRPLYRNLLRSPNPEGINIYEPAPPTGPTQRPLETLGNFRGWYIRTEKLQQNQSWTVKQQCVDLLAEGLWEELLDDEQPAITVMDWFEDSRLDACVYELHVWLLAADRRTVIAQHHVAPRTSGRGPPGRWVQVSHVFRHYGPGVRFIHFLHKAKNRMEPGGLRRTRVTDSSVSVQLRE

[2] = target: T2, coiled-coil domain containing 102A, transcript variant X1 (human, UniProt Q96A19 1-550)
T2 construct: on protein array; also called CCDC102A

[3] = target: T3, teashirt zinc finger homeobox 2, transcript variant 1 (human, UniProt Q9NRE2 1-1034)
T3 construct: on protein array; also called TSHZ2
T3 sequence: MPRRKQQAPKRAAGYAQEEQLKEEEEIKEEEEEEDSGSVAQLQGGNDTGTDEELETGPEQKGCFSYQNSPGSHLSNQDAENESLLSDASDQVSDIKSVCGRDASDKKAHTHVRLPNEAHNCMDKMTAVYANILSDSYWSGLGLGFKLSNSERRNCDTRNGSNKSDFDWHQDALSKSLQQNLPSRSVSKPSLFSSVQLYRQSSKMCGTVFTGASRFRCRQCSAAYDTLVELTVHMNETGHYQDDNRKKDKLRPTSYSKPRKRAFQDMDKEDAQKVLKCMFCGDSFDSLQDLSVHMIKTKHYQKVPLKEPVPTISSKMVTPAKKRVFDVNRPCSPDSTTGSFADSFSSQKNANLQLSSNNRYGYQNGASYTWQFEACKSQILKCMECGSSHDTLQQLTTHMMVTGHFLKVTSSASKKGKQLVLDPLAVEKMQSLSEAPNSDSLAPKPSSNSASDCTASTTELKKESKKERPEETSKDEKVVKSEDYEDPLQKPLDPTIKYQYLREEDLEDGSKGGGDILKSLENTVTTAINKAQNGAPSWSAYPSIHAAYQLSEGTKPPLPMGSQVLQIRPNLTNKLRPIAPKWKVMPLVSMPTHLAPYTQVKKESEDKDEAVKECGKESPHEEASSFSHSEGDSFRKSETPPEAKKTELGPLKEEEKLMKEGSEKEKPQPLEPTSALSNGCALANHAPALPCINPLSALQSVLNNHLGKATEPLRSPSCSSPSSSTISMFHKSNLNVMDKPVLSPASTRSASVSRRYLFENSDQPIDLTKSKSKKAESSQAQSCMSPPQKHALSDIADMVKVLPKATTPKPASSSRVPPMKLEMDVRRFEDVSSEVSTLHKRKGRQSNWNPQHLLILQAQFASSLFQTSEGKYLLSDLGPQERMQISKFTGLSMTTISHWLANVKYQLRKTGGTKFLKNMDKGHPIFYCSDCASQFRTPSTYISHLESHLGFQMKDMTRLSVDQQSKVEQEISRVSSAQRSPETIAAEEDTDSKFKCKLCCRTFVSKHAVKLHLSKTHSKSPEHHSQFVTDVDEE

[4] = target: T4, Atpase secretory pathway ca2+ transporting 1 (human, UniProt P98194 1-909)
T4 construct: on protein array; also called ATP2C1
T4 sequence: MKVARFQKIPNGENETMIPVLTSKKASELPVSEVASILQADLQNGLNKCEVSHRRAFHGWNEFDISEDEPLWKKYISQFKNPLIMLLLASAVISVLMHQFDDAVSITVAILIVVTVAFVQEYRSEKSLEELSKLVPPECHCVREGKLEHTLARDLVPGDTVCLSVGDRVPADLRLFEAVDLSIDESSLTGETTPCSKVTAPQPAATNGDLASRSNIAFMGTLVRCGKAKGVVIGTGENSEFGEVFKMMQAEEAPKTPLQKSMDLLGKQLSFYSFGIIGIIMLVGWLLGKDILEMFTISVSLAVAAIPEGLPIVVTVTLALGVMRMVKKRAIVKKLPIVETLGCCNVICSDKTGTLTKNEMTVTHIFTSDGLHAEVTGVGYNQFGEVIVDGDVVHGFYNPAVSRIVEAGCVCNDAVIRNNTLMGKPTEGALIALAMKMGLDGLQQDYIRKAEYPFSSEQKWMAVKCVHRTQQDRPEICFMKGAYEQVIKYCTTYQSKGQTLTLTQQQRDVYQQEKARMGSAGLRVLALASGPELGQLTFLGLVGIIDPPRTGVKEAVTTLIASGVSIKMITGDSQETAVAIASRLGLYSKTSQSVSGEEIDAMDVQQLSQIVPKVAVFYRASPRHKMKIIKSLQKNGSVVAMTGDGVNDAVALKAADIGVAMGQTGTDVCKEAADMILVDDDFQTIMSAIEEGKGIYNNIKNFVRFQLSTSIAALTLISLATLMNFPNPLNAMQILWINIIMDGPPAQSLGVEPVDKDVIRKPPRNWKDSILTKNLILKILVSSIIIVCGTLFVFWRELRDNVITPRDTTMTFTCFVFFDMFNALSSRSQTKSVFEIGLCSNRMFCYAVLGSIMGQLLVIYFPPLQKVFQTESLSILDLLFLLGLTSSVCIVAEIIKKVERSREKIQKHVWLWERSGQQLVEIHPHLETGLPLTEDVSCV

[5] = target: T5, RNA binding motif protein 47, transcript variant X10 (human, UniProt A0AV96 1-593)
T5 construct: on protein array; also called RBM47
T5 sequence: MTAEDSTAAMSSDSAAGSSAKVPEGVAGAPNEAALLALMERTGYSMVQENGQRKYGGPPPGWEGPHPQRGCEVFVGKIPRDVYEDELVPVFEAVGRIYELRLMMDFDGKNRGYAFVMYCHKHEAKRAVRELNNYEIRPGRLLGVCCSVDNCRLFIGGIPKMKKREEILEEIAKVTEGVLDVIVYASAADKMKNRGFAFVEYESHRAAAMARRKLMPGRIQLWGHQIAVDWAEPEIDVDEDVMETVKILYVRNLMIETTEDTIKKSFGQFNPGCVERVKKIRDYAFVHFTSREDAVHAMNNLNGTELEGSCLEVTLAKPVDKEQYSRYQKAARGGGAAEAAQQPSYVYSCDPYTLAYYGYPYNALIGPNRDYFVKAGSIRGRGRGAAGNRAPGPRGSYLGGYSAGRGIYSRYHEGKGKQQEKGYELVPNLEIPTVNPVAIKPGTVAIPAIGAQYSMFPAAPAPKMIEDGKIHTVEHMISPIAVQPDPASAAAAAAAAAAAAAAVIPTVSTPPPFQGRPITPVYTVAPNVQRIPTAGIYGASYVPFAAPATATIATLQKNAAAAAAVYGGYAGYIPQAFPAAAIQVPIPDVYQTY

[6] = target: T6, synaptotagmin 12, transcript variant X4 (human, UniProt Q8IV01 1-421)
T6 construct: on protein array; also called SYT12
T6 sequence: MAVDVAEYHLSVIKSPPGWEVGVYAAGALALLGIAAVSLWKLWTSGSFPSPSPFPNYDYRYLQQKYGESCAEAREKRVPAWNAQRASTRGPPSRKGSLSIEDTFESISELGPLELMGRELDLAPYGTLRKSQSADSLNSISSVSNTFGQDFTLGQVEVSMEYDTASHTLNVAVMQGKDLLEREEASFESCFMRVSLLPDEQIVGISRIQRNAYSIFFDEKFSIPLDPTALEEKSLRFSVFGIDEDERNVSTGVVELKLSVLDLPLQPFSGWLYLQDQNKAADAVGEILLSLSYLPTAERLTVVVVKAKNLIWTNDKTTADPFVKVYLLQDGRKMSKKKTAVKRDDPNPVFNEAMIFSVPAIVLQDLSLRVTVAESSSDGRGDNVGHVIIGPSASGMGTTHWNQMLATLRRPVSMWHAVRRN

[7] = target: T7, glycogen phosphorylase L, transcript variant 1 (human, UniProt P06737 2-847)
T7 construct: on protein array; also called PYGL
T7 sequence: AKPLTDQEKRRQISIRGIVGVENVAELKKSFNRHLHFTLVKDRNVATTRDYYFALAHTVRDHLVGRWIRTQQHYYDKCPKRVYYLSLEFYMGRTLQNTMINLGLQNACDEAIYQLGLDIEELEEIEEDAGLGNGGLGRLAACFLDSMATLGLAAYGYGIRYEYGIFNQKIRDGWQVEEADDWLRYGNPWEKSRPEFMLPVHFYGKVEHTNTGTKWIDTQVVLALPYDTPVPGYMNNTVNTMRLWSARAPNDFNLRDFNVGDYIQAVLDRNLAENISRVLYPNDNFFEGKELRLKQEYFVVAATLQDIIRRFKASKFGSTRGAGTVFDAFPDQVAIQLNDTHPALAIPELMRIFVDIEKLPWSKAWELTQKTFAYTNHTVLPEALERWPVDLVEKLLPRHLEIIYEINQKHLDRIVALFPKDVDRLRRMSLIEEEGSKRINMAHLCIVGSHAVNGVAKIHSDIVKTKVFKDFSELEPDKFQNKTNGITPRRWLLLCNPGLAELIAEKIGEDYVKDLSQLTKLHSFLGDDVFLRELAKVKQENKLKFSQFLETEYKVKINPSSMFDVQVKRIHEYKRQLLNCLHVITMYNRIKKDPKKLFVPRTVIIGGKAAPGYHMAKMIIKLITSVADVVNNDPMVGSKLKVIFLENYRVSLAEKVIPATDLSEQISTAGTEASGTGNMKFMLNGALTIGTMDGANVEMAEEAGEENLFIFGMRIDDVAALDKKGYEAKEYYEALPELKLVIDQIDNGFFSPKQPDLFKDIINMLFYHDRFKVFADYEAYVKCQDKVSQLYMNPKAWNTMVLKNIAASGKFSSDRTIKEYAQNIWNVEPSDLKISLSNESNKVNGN

[8] = target: T8, Reticulocalbin 3 (human, UniProt Q96D15 21-328)
T8 construct: on protein array; also called RCN3
T8 sequence: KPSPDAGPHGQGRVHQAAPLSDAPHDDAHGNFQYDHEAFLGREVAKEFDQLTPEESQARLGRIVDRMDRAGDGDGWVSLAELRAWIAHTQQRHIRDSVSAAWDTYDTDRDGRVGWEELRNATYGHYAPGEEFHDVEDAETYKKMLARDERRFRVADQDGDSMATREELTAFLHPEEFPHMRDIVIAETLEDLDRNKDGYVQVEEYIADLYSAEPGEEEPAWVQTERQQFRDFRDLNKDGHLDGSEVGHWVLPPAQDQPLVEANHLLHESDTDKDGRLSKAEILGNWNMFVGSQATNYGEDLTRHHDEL

T2 sequence (Q96A19 other isoform, or with tags, fused parts or gaps mutant limits assumed): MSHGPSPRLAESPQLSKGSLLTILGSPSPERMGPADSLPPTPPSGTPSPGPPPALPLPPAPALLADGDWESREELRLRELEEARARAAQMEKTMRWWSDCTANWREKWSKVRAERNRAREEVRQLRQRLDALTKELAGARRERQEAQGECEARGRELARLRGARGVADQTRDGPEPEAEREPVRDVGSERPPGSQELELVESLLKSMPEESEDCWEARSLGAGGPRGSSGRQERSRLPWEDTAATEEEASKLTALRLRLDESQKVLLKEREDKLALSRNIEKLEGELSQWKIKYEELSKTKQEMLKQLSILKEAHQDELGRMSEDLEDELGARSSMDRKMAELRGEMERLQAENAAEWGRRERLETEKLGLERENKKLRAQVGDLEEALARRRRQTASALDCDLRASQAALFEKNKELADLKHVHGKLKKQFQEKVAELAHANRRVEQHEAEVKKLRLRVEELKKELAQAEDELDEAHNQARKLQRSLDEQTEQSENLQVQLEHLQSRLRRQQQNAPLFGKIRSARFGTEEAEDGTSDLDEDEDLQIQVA

B1: THNS1003 (antibody, V domains shown)
VH: VVQLVESGGGLVQPGGSLRLSCAASGFTFNNYEMNWVRQAPGKGLEWVSYISSSGSTIYYADSVKGRFTISRDNAKNSLYLQMNSLRAEDTAVYYCARQMVTTRGYWGQGTLVTVSS
VL: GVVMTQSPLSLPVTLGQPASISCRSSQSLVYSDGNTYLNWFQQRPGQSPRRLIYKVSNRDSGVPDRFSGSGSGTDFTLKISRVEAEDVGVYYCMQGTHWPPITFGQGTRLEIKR
notes: VH/VL only
binding result [1]: binds | binding result [2]: binds

B2: TESO1006 (antibody, V domains shown)
VH: QLHLQESGPGLVKPSETLSLTCTVSGGSVSSSSYYWGWVRQPPGKGLEWIGHVYYSGRTYYNPSLKSRATISLDTSKNQFSLKLSSLTATDTAVYYCATIVAAYSYGFEFDPWGQGILVIVSS
VL: QSVLTQPPSVSAAPGQKVTISCSGGSSNIGNNYVSWYQQLPGTAPKLIIYDNDKRPAGIPDRFSGSKSGSSATLGITGLQNGDEAEYYCGTWDSSLGGGVFGGGTKVTVLG
notes: VH/VL only
binding result [3]: binds | binding result [4]: binds

Second part, the binder after the results:

binding result [5]: binds
B3: THNS1004 (antibody, V domains shown)
VH: EVQLVESGGGLVQPGGSLRLSCAASGFTFSSNWMSWVRQAPGKGLEWVANIKEDGSEKYYVDSVKGRFTIFRDNAKNSLYLQMNSLRAEDTAVYYCARVPSRYGRSRGAFDIWGQGTMVTVSS
VL: DIQMTQSPSSLSASVGDRVTITCRASQSISSYLNWYQQKPGKAPKLLIYAASSLQSGVPSRFSGSGSGTDFTLAISSLQPEDFATYYCHQTYSTRLTFGGGTEVEIKR
notes: VH/VL only

binding result [6]: binds | binding result [7]: binds | binding result [8]: binds
B4: TBLA1007 (antibody, V domains shown)
VH: QVQLVQSGAEVKKPGASVKVSCKASGYTFTNYGFSWVRQAPGQGLEWMGRITTYNRDTIYAQKFQGRVTMTTDTSTSTAYMELRSLRSDDTAVYFCARVVPGDSVYGAFDIWGQGTMVTVSS
VL: DIQMTQSPSSLSASVGDRVTITCRASQSISSYLNWYQQKPGRAPRLLIYAASRLQIGVPSRFSGSGSGTDFTLTISSLQPEDFATYYCQQSYRMPCSFGQGTKLEI
notes: VH/VL only
